The target in the assay is Hybrid Rubisco of A. thaliana S2Cr lines (1a3b mutant complemented with S2Cr) (Arabidopsis thaliana; Chlamydomonas reinhardtii) (UniProt O03042). Briefly: cell-based or functional assay.

In turn, “EPYC1-dGFP (truncated mature EPYC1 expressed from two cassettes as EPYC1::eGFP and EPYC1::tGFP)” gave a share of Rubisco in the pelleted condensate that contained C. reinhardtii SSU (Coomassie-stained gel) of 82%; a share of Rubisco localized to the condensate (immunogold TEM, polyclonal Rubisco antibody) of 54%; a share of the C. reinhardtii SSU localized to the condensate (immunogold TEM, anti-CrRbcS2) of 81%.

The record behind these values is patent publication US20220282268A1.
